Target: T1, recombinant Caulobacter FtsZ (Caulobacter crescentus, UniProt B8H080 1-508)
T1 sequence (looked up): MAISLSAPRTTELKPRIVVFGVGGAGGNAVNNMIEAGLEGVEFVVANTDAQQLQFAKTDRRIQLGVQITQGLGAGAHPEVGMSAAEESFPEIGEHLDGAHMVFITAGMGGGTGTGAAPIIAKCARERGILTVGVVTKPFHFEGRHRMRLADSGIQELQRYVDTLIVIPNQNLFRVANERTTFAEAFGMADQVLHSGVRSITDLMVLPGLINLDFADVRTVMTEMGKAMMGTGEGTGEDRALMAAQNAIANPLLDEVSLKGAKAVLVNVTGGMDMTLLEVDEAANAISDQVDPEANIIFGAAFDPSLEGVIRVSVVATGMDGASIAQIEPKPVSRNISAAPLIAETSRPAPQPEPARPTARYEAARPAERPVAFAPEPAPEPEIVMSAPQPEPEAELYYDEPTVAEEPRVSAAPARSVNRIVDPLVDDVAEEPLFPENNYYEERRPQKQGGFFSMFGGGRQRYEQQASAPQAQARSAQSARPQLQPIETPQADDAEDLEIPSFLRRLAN
Assay: right angle light scattering

fold increase in light scattering at steady state against FtsZ without FzlA: > 10 fold
B1: His6-FzlA (natural protein, Caulobacter crescentus, UniProt Q9A2C6 1-228, looked up)
chain: MSVERTLHHFPLDPASRQVRLALGEKRLPFVEMQVRYWEMPPEFTSLNPSGMPPVLVETKHQRNLVICETRAILEHIEETETEPPLLGRDPAERAEARRLLQWFDRKFDNEVNGFLLHEKMEKRLLRMGAPDLAALRQGREALRMHLGYIESLLQTRDWLAGRRMSLADFAAAAHLSVIDYFGDVPWKDFQAAKTWYMKLKSRPCFRPILADRWPGLAPAAHYDDLDF

Source: paper PMC2945607 (Molecular cell, 2010)
